Data published in PMC4452428 (Biotechnology and bioengineering, 2015).

What was measured:
[1] = Michaelis-Menten kinetics, colorimetric nitrocefin assay; format: biochemical; settings: nitrocefin 10 μM to 500 μM, 96-well, triplicate
[2] = system: MHC II alleles DRB1*0101, 0401, 0701, and 1501; settings: IC50≥100 μM; average per protein for designs

B1: P99 beta-lactamase (protein, UniProt P05364 21-381, looked up)
Beta-lactamase: TPVSEKQLAEVVANTITPLMKAQSVPGMAVAVIYQGKPHYYTFGKADIAANKPVTPQTLFELGSISKTFTGVLGGDAIARGEISLDDAVTRYWPQLTGKQWQGIRMLDLATYTAGGLPLQVPDEVTDNASLLRFYQNWQPQWKPGTTRLYANASIGLFGALAVKPSGMPYEQAMTTRVLKPLKLDHTWINVPKAEEAHYAWGYRDGKAVRVSPGMLDAQAYGVKTNVQDMANWVMANMAPENVADASLKQGIALAQSRYWRIGSMYQGLGWEMLNWPVEANTVVEGSDSKVALAPLPVAEVNPPAPPVKASWVHKTGSTGGFGSYVAFIPEKQIGIVMLANTSYPNPARVEAAYHILEALQ
[1]; non-linear regression, biological duplicate
  Km: 80 ± 10 µM
[1]; non-linear regression, enzymes purified and assayed in biological duplicate
  kcat: 360 ± 20 s⁻¹
[1]; biological duplicate
  kcat/Km: 4.6 ± 0.7 s^−1μM^−1
[2]
  non-binding peptides out of 36: 13/36
